Experiments:
[1] = system: permanent LAD ligation mouse model of MI
Description: B), High-frequency ultrasound echocardiography obtained in parasternal long axis (PLAX) with measurement of left ventricular ejection fraction (LVEF, %) and left ventricular end diastolic volume (LVEDV, μl) on day 7 after operation. […] Ordinary one-way ANOVA, Sidak's multiple comparison test, n=4-7 animals per group.
C), Experimental design: Mice were injected with NAPc2 (1 mg/kg/d) once daily by i.p. injection from day 1 through day 7. D), High-frequency echocardiography obtained in parasternal long axis (PLAX) with measurement of LVEF, LVEDV on day 7 after LAD ligation. E), Representative blots for protein expression analysis of pERK1/2, NOX2, TGF-β1 and α-SMA in infarcted myocardium obtained from vehicle or NAPc2 treated mice. F-H, Mice were injected with NAPc2 (1 mg/kg/d) and/or vehicle (1 mg/kg/d) once daily by i.p. injection from day 1 through day 7 followed by longitudinal analysis. […] Echocardiographic studies over 4 weeks from day 7 for LVEF (%), LVEDV (p1) in PLAX M-mode; two-way ANOVA, Bonferroni's multiple comparisons test, n=6-12 animals per each group (G). Kaplan-Meier survival analysis of LAD ligated versus sham operated NAPc2 876 and vehicle treated mice after 4 weeks. Log-rank (Mantel-Cox) test, n=7-15 animals per group (H).

[2] = prevention of venous thromboembolism, total knee replacement patients (ref 27); cited from earlier work
[3] = human, in vivo; cited from earlier work
human monocytes = test: Isolated human monocytes exposed to hypoxia (OGD) plus inflammatory cytokine cocktail, western blot; assay type: cell-based; conditions: NAPc2 200 ng/ml; cytokine cocktail 20 ng/ml plus hypoxia
Description: Representative blots and quantification. […] Representative images and quantification of replicates.
Monocytes isolation and in vitro culture: Bone marrow derived cell suspensions were isolated by flushing femurs and tibias of 8-12 weeks old mice. Cell aggregates were removed by gentle pipetting and the cell lysates were passed through a 70 μm nylon strainer to remove the cell debris. Furthermore, to enrich monocytes population, mouse monocyte isolation Kit ([…] Technologies Inc., Vancouver, BC, Canada) was used according to standard protocols provided by the manufacturer. To mimic in vivo ischemic conditions, a protocol of oxygen-glucose-deprivation (OGD) is applied along with the cytokine cocktail mix (IL-6, TNF-α and MCP-1) at concentrations of 20 ng/ml for 4 hours followed by the protein expression analysis of pERK1/2, NOX2 and TGF-β1 on isolated monocytes. […] For blocking TF-FVIIa signaling on human monocytes, isolated monocytes from healthy individuals were treated with NAPc2 in the presence of OGD along with the cytokine cocktail mix followed by the protein expression analysis of pERK1/2, NOX2 and TGF-β1.

[4] = NAPc2 1 mg/kg/d i.p. day 1-7, western blot
[5] = NAPc2 1 mg/kg/d i.p. starting 1 day after MI, 7 d after LAD ligation

| Molecule | cardiac function in sham-operated mice ([1]; trametinib 1 mg/kg/d oral, sham surgery) | cardiac function (LVEF, LVEDV by echocardiography) ([1]; NAPc2 1 mg/kg/d i.p. day 1-7, day 7 after LAD ligation) | cardiac infiltration of CD11b+ myeloid cells ([1]; NAPc2 1 mg/kg/d i.p. day 1-7, flow cytometry of infarcted myocardium) | ERK1/2 phosphorylation in the infarcted heart [1, 4] | NOX2 expression in the infarcted heart [1, 4] | TGF-β1 activation in the infarcted heart [1, 4] | up-regulation of the downstream target α-SMA in the infarcted heart [1, 4] | levels of NOX2 in circulating myeloid cells (PBMCs) [1, 5] | levels of active TGF-β1 in circulating myeloid cells (PBMCs) [1, 5] | cardiac fibrosis (fibrotic areas normalized to surface area) ([1]; short term NAPc2 1 mg/kg/d i.p. from 1 d until 7 d post MI, longitudinal analysis, compared to vehicle) | survival (Kaplan-Meier, 4 weeks) ([1]; short term NAPc2 1 mg/kg/d i.p. from 1 d until 7 d post MI, LAD ligated mice) | cardiac function in chronic MI (LVEF, LVEDV over 4 weeks) ([1]; short term NAPc2 1 mg/kg/d i.p. from 1 d until 7 d post MI, compared to vehicle) | antithrombotic effect [2] | safety [3] | ERK1/2 phosphorylation (human monocytes) | NOX2 expression (human monocytes) | TGF-β1 activation (human monocytes) |
| --- | --- | --- | --- | --- | --- | --- | --- | --- | --- | --- | --- | --- | --- | --- | --- | --- | --- |
| CC(=O)Nc1cccc(-n2c(=O)n(C3CC3)c(=O)c3c(Nc4ccc(I)cc4F)n(C)c(=O)c(C)c32)c1 [trametinib, reference compound] | no significant effects |  |  |  |  |  |  |  |  |  |  |  |  |  |  |  |  |
| NAPc2: single-chain, non-glycosylated 85 amino acid protein, 9732 Da; blocks TF signaling and coagulation via inhibited TF-FVIIa-FX(a) complex (protein, listed as Ancylostoma caninum) KATMQCGENEKYDSCGSKECDKKCKYDGVEEEDDEEPNVPCLVRVCHQDCVCEEGFYRNKDDKCVSAEDCELDNMDFIYPGTRN |  | improved cardiac function | attenuated | diminished | diminished | diminished | diminished | attenuated | attenuated | significantly reduced | improved survival | improved cardiac function | has been demonstrated | documented safety | reduced | suppressed | suppressed |

Source: patent US20240108688A1, “Inhibitors of the tissue factor-protease activated receptor 2 (TF-PAR2) signaling pathway for use in the treatment or prevention of heart failure (HF) and associated or resulting diseases” (priority 2020, published 2024)
